What was measured:
Assay type in all cases: in vivo
[1] = tested on: mouse CIA model (DBA1/J mice); assay: Mouse collagen induced arthritis (CIA) model, therapeutic protocol; details: 10 mg/kg, 3x week, i.p., day 31 to day 46
Experimental: (§1) DBA1/J mice (male, 6-7 weeks old, approx 20 gram) were obtained from Centre d'Elevage Regional Janvier (Laval, France). Mice were kept on a 12 hr light/dark cycle (0700-1900). Temperature was maintained at 22° C., and food and water were provided ad libitum.
One day before the experiment, CII solution (2 mg/mL) was prepared with 0.05 M acetic acid and stored at 4° C. Just before the immunization, equal volumes of adjuvant […] and CII were mixed by a homogenizer in a pre-cooled glass bottle in an ice water bath. Extra adjuvant and prolonged homogenization may be required if an emulsion is not formed. 0.1 mL of the emulsion was injected intradermally at the base of the tail of each mouse on day 1, a second booster intradermal injection (CII solution at 2 mg/mL in […] 0.1 mLemulsion) was performed on day 21. This immunization method was modified from published methods (Brand et al, 2007, Collagen-induced arthritis. Nature Protocols; vol 2 (5): 1269-1275; Lin et al., 2007, Anti-rheumatic activities of histone deacetylase (HDAC) inhibitors in vivo in collagen-induced arthritis in rodents. Br J Pharmacol. April; 150 (7):829-31).
The therapeutic effects of the antibodies were tested in the mouse CIA model. Mice were randomly divided into equal groups and each group contained 10 mice. All mice were immunized on day 1 and boosted on day 21. Therapeutic dosing lasted from day 31 to day 46. The negative control group was treated with vehicle (PBS) and the positive control group with Enbrel (10 mg/kg, 3× week, i.p.). An antibody of interest was tested at 10 mg/kg, i.p. 3 times per week.
Anti-IL17C antibodies were administered i.p. three times a week at 10 mg/kg. […]
(§2) Arthritis was scored according to the method of Khachigian 2006 (Collagen antibody-induced arthritis. (2006) Nature Protocols 1, 2512-6), Lin et al 2007 (supra); Nishida et al. 2004 (Histone deacetylase inhibitor suppression of autoantibody-mediated arthritis in mice via regulation of p16INK4a and p21(WAF1/Cip1) expression. Arthritis Rheum. 10: 3365-76); and Brand et al. 2007 (supra). […]

[2] = tested on: mouse CIA model (DBA1/J mice); assay: Mouse collagen induced arthritis (CIA) model, preventative protocol; details: 10 mg/kg, 3x week, i.p., day 21 to day 46
Experimental: as §1
One day before the experiment, CII solution (2 mg/mL) was prepared with 0.05 M acetic acid and stored at 4° C. Just before the immunization, equal volumes of adjuvant […] and CII were mixed by a homogenizer in a pre-cooled glass bottle in an ice water bath. Extra adjuvant and prolonged homogenization may be required if an emulsion is not formed. 0.1 mL of the emulsion was injected intradermally at the base of the tail of each mouse on day 1, a second booster intradermal injection (CII solution at 2 mg/mL in […] 0.1 mLemulsion) was performed on day 21. […]
as §2

[3] = tested on: BALB/c female mice, LPS-induced acute lung neutrophilia; assay: Intranasal instillation of LPS, mouse model of acute lung neutrophilia; details: single treatment 5 mg/kg i.p. 24 hours before LPS instillation; BAL 24 hours after LPS
Experimental: Two independent studies were conducted with one negative mAb and two positive mAbs in the intranasal instillation of Lipopolysaccharide (LPS) mouse model of acute lung neutrophilia, a model which mimics some relevant aspects of COPD (Chronic Obstructive Pulmonary Disease). The effects were measured by Broncho Alveolar Lavage (BAL) inflammatory cell counting.
Several groups of mice were treated with different antibodies and Dexamethasone and compared to the mice subjected to LPS only.
BALB/c female mice from Harlan (France) were used in the study. Mice weight was around 20 g.
Mice were anesthetized by isoflurane inhalation. During the breathing, LPS was instilled intranasally. After 24 h, mice were anesthetized intra-peritoneally (IP) and Broncho Alveolar Lavage procedure was performed. Mice were anesthetized by injection of anaesthetic solution of 0.1 mL per 10 g of the mouse weight. The anaesthetic solution was composed of 18 ml 0.9% NaCl, 0.5 mL xylazine (5 mg/Kg) and 1.5 mL ketamine (75 mg/Kg).
The trachea was exposed through midline incision and canulated (with a mice catheter). BAL was performed twice using 1 mL of sterile PBS buffer. […] The cells were counted using a cell counter (Vet abc, France). […]
For all groups, BAL was performed 24 hours after LPS administration and cell counts were measured.
The results were analyzed using Student t-test. […]

B1: MOR12762: anti-mouse IL17C HuCAL antibody; CDRs SEQ ID NO: 171-176, VL 177, VH 178; human/mouse chimeric IgG2a (antibody, V domains shown)
VH: EVQLVQSGAEVKKPGESLKISCKGSGYSFNNYWIAWVRQMPGKGLEWMGFIYPSNSATQYSPSFQGQVTISADKSISTAYLQWSSLKASDTAMYYCARDNEYSDSYFDVWGQGTLVTVSS
VL: DIVLTQSPATLSLSPGERATLSCRASQIVSSYLAWYQQKPGQAPRLLIYDASSRATGIPARFSGSGSGTDFTLTISSLEPEDFAVYYCQQSEQVPTTFGQGTKVEIKRT
modifications: mouse IgG2a constant regions; VH; VL
**Q.** Which “inhibition of inflammation / disease progression (clinical score)” value [1] does the source give for B1 here?
**A.** Its value is “significant inhibition”.

**Q.** And the “inhibition of bone degradation / bone erosion (Larsen score)” value [2]?
**A.** Its value is “significant inhibition”.

**Q.** And the “inhibition of inflammation (clinical score)” value [2]?
**A.** The value was “significant inhibition”.

**Q.** And the “inhibition of the recruitment of inflammatory cells into the BALF” value [3]?
**A.** Its value is “inhibited significantly”.

From US10815297B2, “Antagonists of IL17C for the treatment of inflammatory disorders” (MorphoSys AG, priority 2011, dated 2020)
